In patent US20230106131A1:

What was measured:
[1] = target: GST-MDM2 (human MDM2 residues 17-125) (human) (UniProt Q00987); experiment: ratio of KD values of FITC-labeled peptides
[2] = target: GST-MDM2 (human MDM2 residues 17-125) (human) (UniProt Q00987); experiment: direct binding of the FITC-labeled peptide to MDM2

GST-MDM2 (human MDM2 residues 17-125) (human), sequence (Q00987 17-125): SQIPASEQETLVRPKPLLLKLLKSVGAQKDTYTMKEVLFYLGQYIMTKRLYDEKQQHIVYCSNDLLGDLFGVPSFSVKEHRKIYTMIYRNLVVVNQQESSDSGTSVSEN

fold decrease of affinity against peptide 8 [1]: 8 fold | Kd [2]: 114 nM
Substance: peptide 9, Ac-LTFhCHYWhCQLTS-miniPEG-K(FITC)-NH2, stapled with BBA-CPP9
